Measured values published in paper PMC2652662, “Studies of a Ring-Cleaving Dioxygenase Illuminate the Role of Cholesterol Metabolism in the Pathogenesis of Mycobacterium tuberculosis” (PLoS Pathogens, 2009).

Experiments:
HsaC = molecular target: T1, HsaC (Mycobacterium tuberculosis, UniProt P9WNW7); type: biochemical; details: 20 mM HEPES, 80 mM NaCl, pH 7.0, 5% O2, 25°C; slow substrate, mechanism-based oxidative inactivation
T1 construct: full-length, recombinant in E. coli, purified anaerobically, no tag mentioned; Fe(II) enzyme; gene 903 bp; octamer
T1 sequence (P9WNW7 whole entry): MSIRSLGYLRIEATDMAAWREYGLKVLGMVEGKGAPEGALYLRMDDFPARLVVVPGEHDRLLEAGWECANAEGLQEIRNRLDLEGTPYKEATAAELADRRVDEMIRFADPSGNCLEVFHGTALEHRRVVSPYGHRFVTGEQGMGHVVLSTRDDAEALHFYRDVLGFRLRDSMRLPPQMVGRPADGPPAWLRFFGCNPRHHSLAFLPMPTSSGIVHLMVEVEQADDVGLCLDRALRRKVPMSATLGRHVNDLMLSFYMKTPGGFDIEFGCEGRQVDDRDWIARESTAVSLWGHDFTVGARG

[1] = test system: Cc1cc(Cl)c(O)c(O)c1CCc1ccccc1Cl; test: purified protein; details: pH 7.0; 25.0 °C
[2] = test system: Cc1ccc(O)c(O)c1CC[C@@H]1C(=O)CC[C@]2(C)C(=O)CC[C@@H]12; test: purified protein; details: pH 7.0; 25.0 °C
Oc1cccc(-c2ccccc2)c1O = test: purified protein; details: pH 7.0; 25.0 °C
[3] = test system: Cc1ccc(O)c(O)c1CCc1ccccc1Cl; test: purified protein; details: pH 7.0; 25.0 °C

| Compound | Km (HsaC) [µM] | Km [1] | kcat/Km [1] [M⁻¹ s⁻¹] | Km [2] | kcat/Km [2] [M⁻¹ s⁻¹] | Km (Oc1cccc(-c2ccccc2)c1O) | kcat/Km (Oc1cccc(-c2ccccc2)c1O) [M⁻¹ s⁻¹] | Km [3] | kcat/Km [3] [M⁻¹ s⁻¹] |
| --- | --- | --- | --- | --- | --- | --- | --- | --- | --- |
| Oc1cccc(-c2c(Cl)cccc2Cl)c1O [2′,6′-diCl DHB] | 6.7 | – | – | – | – | – | – | – | – |
| HsaC (Mycobacterium tuberculosis H37Rv) | – | 3.2 (0.3) µM | 85000 | 1.1 (0.2) µM | 1.5e+07 | 10 (2) µM | 160000 | 4.8 (0.6) µM | 1.4e+06 |
